Measured values published in patent US20140056893A1 (Eli Lilly, published 2014).

Molecular target: human glucagon-like peptide 1 receptor (hGLP-1R) (human, UniProt P43220 24-463)
Experiment: cell-based or functional assay

B1: Homodimeric protein wherein the amino acid sequence of each polypeptide of said protein is SEQ ID NO: 1 (Fc fusion)
chain: HGEGTFTSDVSSYLEEQAAKEFIAWLVAGGGGGGGSGGGGSGGGGSESKYGPPCPPCPAPEAAGGPSVFLFPPKPKDTLMISRTPEVTCVVVDVSCEDPEVQFNWYVDGVEVHNAKTKPREEQFNSTYRVVSVLTVLHQDWLNGKEYKCKVSNKGLPSSIEKTISKAKGQPREPQVYTLPPSCEEMTKNQVSLTCLVKGFYPSDIAVEWESNGQPENNYKTTPPVLDSDGSFFLYSRLTVDKSRWQEGNVFSCSVMHEALHNHYTQKSLSLSLGGGGGSGGGGSGGGGSAHPIPDSSPLLQFGGQVRQRYLYTDDAQQTECHLEIREDGTVGCAADQSPESLLQLKALKPGVIQILGVKTSRFLCQRPDGALYGSLHFDPEACSFREDLKEDGYNVYQSEAHGLPLHLPGDKSPHRKPAPRGPARFLPLPGLPPALPEPPGILAPQPPDVGSSDPLRLVEPSCLRSPSFE
In vitro potency (EC50), hGLP-1R-stimulated cAMP functional assay (Alpha Screen) in hGLP-1R-HEK293 cells: 0.067 nM
